Results from a protein production outcome set (Wang et al. 2014).

Assay: label from the status in PepcDB records

Sequence	protein production
MVKAYQRYDAATSFGVISSVDSNIAYDSTGKYVLAPALEKVGIWHVRQGVCSKTLTPSSSRGGPSLAVTSIASSASSLVAVGYADGSIRIWDTEKGTCEVNFNSHKGAVTALRYNKVGSMLASGSKDNDIILWDVVGESGLFRLRGHRDQVTDLVFLDGGKKLVSSSKDKFLRVWDLETQHCMQIVSGHHSEVWSVDTDPEERYVVTGSADQELRFYAVKEYSSNGSLVSDSNANEIKASEEHSTENKWEILKLFGEIQRQTKDRVARVRFNVSGKLLACQMAGKTIEIFRVLDEAEAKQKAKRRLRRKEKKSSKVGDENSTANGEASAKIELADAVSSPTVLDVFKLLQVIRAGRKISSFSFCPTAPKESLGTLALSLNNNSLEFYSLKSSENAKTVTIEHQGHRSDVRSVTLSEDNTLLMSTSHSEVKIWNPSTGSCLRTIDSGYGLCSLIVPQNKYGIVGTKSGVLEIIDIGSATKVEEVKAHGGTIWSITPIPNDSGFVTVSADHEVKFWEYQVKQKSGKATKKLTVSNVKSMKMNDDVLAVAISPDAKHIAVALLDSTVKVFYMDSLKFYLSLYGHKLPVMCIDISSDGELIVTGSQDKNLKIWGLDFGDCHKSIFAHGDSVMGVKFVRNTHYLFSIGKDRLVKYWDADKFEHLLTLEGHHAEIWCLAISNRGDFLVTGSHDRSMRRWDRSEEPFFLEEEKEKRLEELFESEIDNAADDRHGPMEEIPEEGVAALAGKKTIDVLSAADSIIDALEVAEDETKRHAAYEEEKTKGKVPEYLPNAVMFGLSPSEYVLRAISNVRTNDLEQTLLALPFSDSLKFLCYMKDWSLIPEKVELVSRIATIILQTHHNQLVTTPSARPILSVLRDILYSEIKACKDTIGFNLAAMDHVKQMMDARSDAPFKDAKAKLLEIRSQQAKRMASRGDTKMEKKRKKKQKKLEEGQHGHALF	failed
MVKCLSAHNKAPHVSVITPSYNSIRFIGETIVSVQNQSYENWEMIIVDDASTDESVTKIKEIIEGDSRIRLVSLKENIGAAKARNIAIQEARGRYIAFLDSDDIWLPHKLKTQLLFMEEMSVAFSYASYSLIDENGNGLNREVNVPKSVDYHCLAGNTIIGCLTVIIDREKIPHIEMPSVQPEDTALWLKLLHEGHEAKGIQQVLAKYRIVANSVSRNKIKAAFRYWKLLRDQKCLNAVQIFYYFSKYAYHAYRKNKINVVGKTQL	failed
MVKESGMASLLLENPYYGYRKPKDQLRSSLKNVSDLFVMGGALILESAALLHWLERDGFWPLGMTGISMGGHMASLAVTNWPKPIPLIPCLSWTTASSVFTTGVLSRAVNWRELEKQYATHTVYEEEIISMLEYCGTDSFRMGQEFVKNAPGSFDGLDLTQELLQSGQQVALRSSYSGRPASDQDSSVLMGRRERDGLDQMLSAVSSSAPHLDMLHAKSIACGSGQRQSLQRESLCFMKGVMDECTHIANFSVPVDPSLIIIVQAKEDAYVPRTGVRSLQEIWPGCEVRYLNGGHISAYLFKQGLFRQAIYDAYDRFLHKYSSL	not failed
MVKIEVAKPINFNRLITSKEAEVVSMRILNQPNSYISLFSLAKDEEITAEAMLGNRYYYCFNGNGEIFIENNKKTISNGDFLEITANHNYSIEARDNLKLIEIGEKIGDGNMENKTLKMLESASAFNLAEVVEYQEGKIVSKNLVAKPNLVMTIMSFWKGESLDPHKAPGDALVTVLDGEGKYYVDGKPFIVKKGESAVLPANIPHAVEAETENFKMLLILVKE	not failed
MVKKFKRVLVANRGEIAIRIFRACHELGIRTVAIYSEEDKLALFRTKADESYLIGQNKGPVDAYLNIDEIINLALKKGVDAIHPGYGFLSENSEFSRRCTEAGIEFIGPTGDMMDKLGDKINSKLAAKAAGVKTIPGVEKPIETEQQAIEFARTCGYPVMVKAAAGGGGRGMRIVEKEEDLIAACRSAKSEAKKAFGIEDIFIEKYLEGPKHIEVQVLGDKYGNIVHLYERDCSVQRRHQKVIELTPAVSMSEEKRLEICEDALKIARSIGYRSAGTLEFLLDKHGNHYFIEMNPRVQVEHTITEMVTGIDIVQSQILIAEGYKLNSPEVGINSQEDIHVNGYAIQCRITTEDPSNSFAPDTGKIDVYRTGSGFGIRLDGGNGFTGAVISPYYDSLLVKSTSWSRTFEDAIRKAIRAIKETYISGVKTNIDFLINVLNHETFRKGLCDTNFIANNPELFEITPRIDTELRVLKFIGEKVVNETHGHKIEVDVPSVPKYEIKEPLRGTKQILDEKGPKGLVEWIKDQDKLLLTDTTMRDAHQSLMATRLRTVDMVKIAKAESVLAKDLFSMEMWGGATFDTAYRFLKESPWERLERLRKRVPNVLFQMLLRGANAVGYKNYPDNVIREFIKQSSKSGIDVFRIFDSLNWVKGMEVAIDEVLNQGKVAEACMCYTGDILDTNRDKYTLNYYVNLAKEIEKSGAHILGIKDMSALLKPYAALKLIRALKNEISIPIHLHTHDTTGNGVATVLMAAHAGVDIADTAFNSMSGLTSQPALNSVVAALKNTDRDTKMDIGDLQKISDYWSTVRPVYSKFESGLKAVSAEIYKYEIPGGQYSNLKPQVESFGLGHRFEQVKEMYREVNIMLGDIVKVTPSSKMVGDLAIFMVQNELTSENILEKAKDMPFPDSVVSYFKGMMGQPKGGFPKELQKIVLKDEEAITCRPGELLPDEDFDKIRVRLKKENKIEPTDKDVISYALYPDVFEEYLKYKNEYGDLSRMGSDVFFHGLAEGEISELEIAEGKTLVVQLLHIGKLDKQGNRTLVFEVNGNRREIKIKDKVSSTKSEIVEEIVIADSSNKKEIGASIPGNVVKVFVKPGDKVKKGDSLMVIEAMKMETNVSVSEDGTVGGIFVKEGDQVQSGQLLVKLD	failed
MVKKGFLTGLLLFGIFFGAGNLIFPPALGVASGQDFWPAILGFCLSGVGLAIITLLLGTLTNGGYKTEMSEKFSPWFSLTFLVILYLTIGPLFAIPRTATVSFEIGVAPIVGHSPIALLCFTACFFAAAYYLAIRPNGILDSVGKILTPVFAFLILSLVVVGAIAYGNLESAKASADYAGKAFGSGVLAGYNTLDALAAVAFCLVATETLKKFGFKTKKEYLSTIWIVGIVTSLAFSILYIGLGFLGNKFPVPADILADPNVNKGAYVLSQASYKLFGNFGRYFLSIMVTLTCFTTTVGLIVSVSEFFDKNFRFGNYKLFATVFTLIGFLIANLGLNAVITFSVPVLTLLYPIVIVIVLIILINKWLPLSKKGMSLTIGLVTLVSFVEVLAGQWQEKTLTQLVGFLPFHTISMGWLVPMLIGIVFSLVLSDKQKGQAFDLEKFEG	failed
MVKKIGLSIMLLFFFLIIALPIYAWKIEPNLVHVNQVTLGKKNQREPLNVVQLSDIQVSEFYETKRLDKVIKKVNREKPDIIVFTGDLFDNYAKNPQQKEPMIEKLKQLQATIGKYAVWGNHDYGGGASAVYDEVMEASGFTVMKNQGETVTLADGRRLFIGGLDDSLLGNPSVSETLSYRETYDYALLMTHEPDVADAFVGTGTQLVLAGHSHGGQIWIPFYPITNVLAEKYTRGLYQLDQETQLYVNTGLGTTAIHARFGVIPEITHFTIYI	failed
MVKLGCSFSGKPGKEAGDQDGAAMDSVPLISPLDVSQLQPSFSDQVVINTQTEYQLTSADQPKKFADLEGQRLACSHSEEGRRLPTARMIAFAMALLGCVLIMYKAIWYDQFTCPDGFLLRHKICTPLTLEMYYTEMDPERHRSILAAIGAYPLSRKHGTEMPAVWGNNYRTAKEEHKGTTPAAMAVSTAAAAAAAEGTEPSGKSLDTREKEDPQKAEGVPSQPPK	failed
MVKNGRDPPERNFYCTEKEETAPPLMNIFDDFKSQIEREIMTIFLKTAYESLLSIAISTEIIVPEDETRSLEKEVIKLMKLMKLMNLLEPLGNRVSRLMGLVRNAEEHRERIVKRNQESDVREIFKIAASRTKTRFHKALQKESSSSSMKWGFTEAKDEVLSLGIRLTHALIKLTLLRVKKNDREKQLLLRDWIFDESYEKQSALMYLLDYLLYKAEEFAASVVVEESGNDHHRQHILEEDRIGDDILTRISEAIFILQLLAMNLSRNVLTERDLIATNDQLLRCVRDVKFVESTIVVLMKGRSLKLKHKGKQSLLMKERTETIFWAKVNAELNKCWGESFWKYVEAARHLEAVVSSQQIVYTLCKLFVFGFES	failed
MVKQGVFMKTDQSKVKKLSDYKSLDYFVIHVDLQIDLSKKPVESKARLTVVPNLNVDSHSNDLVLDGENMTLVSLQMNDNLLKENEYELTKDSLIIKNIPQNTPFTIEMTSLLGENTDLFGLYETEGVALVKAESEGLRRVFYLPDRPDNLATYKTTIIANQEDYPVLLSNGVLIEKKELPLGLHSVTWLDDVPKPSYLFALVAGNLQRSVTYYQTKSGRELPIEFYVPPSATSKCDFAKEVLKEAMAWDERTFNLECALRQHMVAGVDKYASGASEPTGLNLFNTENLFASPETKTDLGILRVLEVVAHEFFHYWSGDRVTIRDWFNLPLKEGLTTFRAAMFREELFGTDLIRLLDGKNLDERAPRQSAYTAVRSLYTAAAYEKSADIFRMMMLFIGKEPFIEAVAKFFKDNDGGAVTLEDFIESISNSSGKDLRSFLSWFTESGIPELIVTDELNPDTKQYFLKIKTVNGRNRPIPILMGLLDSSGAEIVADKLLIVDQEEIEFQFENIQTRPIPSLLRSFSAPVHMKYEYSYQDLLLLMQFDTNLYNRCEAAKQLISALINDFCIGKKIELSPQFFAVYKALLSDNSLNEWMLAELITLPSLEELIENQDKPDFEKLNEGRQLIQNALANELKTDFYNLLFRIQISGDDDKQKLKGFDLKQAGLRRLKSVCFSYLLNVDFEKTKEKLILQFEDALGKNMTETALALSMLCEINCEEADVALEDYYHYWKNDPGAVNNWFSIQALAHSPDVIERVKKLMRHGDFDLSNPNKVYALLGSFIKNPFGFHSVTGEGYQLVADAIFDLDKINPTLAANLTEKFTYWDKYDVNRQAMMISTLKIIYSNATSSDVRTMAKKGLDKVKEDLPLPIHLTFHGGSTMQDRTAQLIADGNKENAYQLH	failed
MVKRANTFAMRPLTADDEQVLRDLLDASAALWNEINYQRLMRYNDKDGFEDEDVWDADTGALEGKYKAVLGASTAQTVRRANTEAWRSFFRLKKQFHDESNTSVTEHPEPPGFRGNKDDGRVLKGVVRKDAYSVEWGDRSRLEMVVGEQLRDRHNSPKSRLRLEIVGDPNWSDYEDQGRLELWYDETDCTFRASQPVTVSDDARATPLANEKAALDIGANNLVACTTTTGQQYLYEGRELFQRFRETTREIARLQSKLPEGRYSSKRIRRLYRKRTRRRDHAQETLCRDLLEQLYGEGVDTVYIGGLTDVLETHWSAETNAKTHNFWAFKQFTERLAWTADEYGISVEVRSEAWTSQECPQCGSTDRTTRQQDTLTCPCGFEGHADVTASETFLERHTEKAVRPMARPVRFEWDDHEWSESPRSPARESPKEQRTDPSTVPRDGNVVSGDSLEHHHHHH	failed
MVKSDIIIVKNFHGVFCLNLVNEIFENKYKIIDILGKGGMSTVYLAKDIKLQKFWAIKEVSNNINDTSKLKVDLLAETNILKKLDHPALPRIVDIIKRDESLYIVMDFIDGVSLDKFIHKNGAINEKVVLDWAKQICDVLSYLHSQKPNPIIYRDMKPGNLMLTQNGKIKLIDFGIAREYKKEVSKDTTYIGTRGYAAPEQYGDCQSDARTDIYSFGVTLYHMLTGKGPNDPPFELKPVRELNSSLSEGIEHIIEKSTRQDPSLRYQNVDEMLYDIKNIHKLNSKYKKQLVKKYIKVAASACLFIFSVFLIISGVLGIKSDSANEYNNIIENGSKQNGDKAVEYFKQAVDKNSSNPKAYIKIIDTYLENGEYDQSIDFIETNLNNKQSELLKDNELLFKIGMAYFDDESYAKAYQYFNKIKGADISISEPLKYYKPVANALSKVDLQNKDKIVSSITQLEKYIDSRSDVDYKVESYITLAELYRDNPQIFPQNTDKEIGVLEKASSVSANKNNAILYGQLGQAYFDKASESKIEQDKYNFYLNKALDSYKNSIQMGSKISNTYCKLGLIYKYLGNTAESKNTFQKETQLFSDDYKGYMEMALLEYDSQQSAAPETRNYSEFVKYYNSTVSKKYNENDVDFMTLKQEYNDLKNQGVIK	failed
